In one assay the target is T1, PDK1 catalytic domain (Homo sapiens, UniProt O15530).
T1 construct: The catalytic domain (CD) of PDK1 50-359 and its mutants
T1 sequence (O15530 50-359): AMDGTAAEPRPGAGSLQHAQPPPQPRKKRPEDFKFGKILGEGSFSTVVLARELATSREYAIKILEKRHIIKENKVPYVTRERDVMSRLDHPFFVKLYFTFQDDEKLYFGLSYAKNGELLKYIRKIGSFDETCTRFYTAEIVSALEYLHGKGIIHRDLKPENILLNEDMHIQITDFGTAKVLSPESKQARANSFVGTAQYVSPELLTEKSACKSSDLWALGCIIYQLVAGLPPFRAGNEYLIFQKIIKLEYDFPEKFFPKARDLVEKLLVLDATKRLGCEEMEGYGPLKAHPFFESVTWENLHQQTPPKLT
Briefly: TNP-ATP fluorescence probing of the ATP binding site conformation. In kind it is biochemical. The note with it: 40 μM TNP-ATP, 15 μM PDK1 catalytic domain. The source says: Probing the conformation of the ATP binding site in PDK1: The activation of PDK1 by HM-polypeptides and small compounds is due to a change in the conformation of the enzyme. We probed the conformation of the ATP binding site in PDK1 by scanning the steady-state fluorescence of TNP-ATP/PDK1, in the presence or absence of P-HM-polypeptides, PIFtide, or small molecular weight compounds. Data were obtained in a Varian Cary Eclipse spectrofluorometer (excitation λ=479 nm; emission scanning, λ=500-600 nm; excitation slit=10 nm; emission slit=10 nm) at a rate of 200 nm/min, with 150 datapoints/100 nm scanning and 0.3 s averaging time. The incubation was performed at 20° C. in a buffer containing 50 mM Tris pH 7.5, 0.1 mM EDTA, 187 mM NaCl, 40 μM TNP-ATP, 15 μM PDK1 catalytic domain, 1 mM DTT and 1% DMSO. In the absence of PDK1, TNP-ATP produced approximately 1.5 arbitrary units (a.u.) of fluorescence, and the inclusion of PDK1 increased its fluorescence intensity to approximately 3.3 a.u. […] In preliminary tests, inclusion of 2.5 mM MgCl2 in the assay mix produced similar results. Data for each condition are the average of 3 scans.

The test system of a further assay is PDK1. The assay can be described thus: PDK1 protein kinase activity test with T308tide substrate. In kind it is biochemical, human. The note with it: T308tide as substrate. Here is the method: In brief, PDK1 activity assay was performed at room temperature (22° C.) in a 20 μl mix containing 50 mM Tris pH 7.5, 0.05 mg/ml BSA, 0.1% β-mercaptoethanol, 10 mM MgCl2, 100 μM [γ^32P]ATP (5-50 cpm/pmol), 0.003% Brij, 150 ng PDK1, and T308tide (from 0.1 to 1 mM). […] Experiments were repeated at least twice.
PDK1, sequence (O15530 51-360 limits assumed): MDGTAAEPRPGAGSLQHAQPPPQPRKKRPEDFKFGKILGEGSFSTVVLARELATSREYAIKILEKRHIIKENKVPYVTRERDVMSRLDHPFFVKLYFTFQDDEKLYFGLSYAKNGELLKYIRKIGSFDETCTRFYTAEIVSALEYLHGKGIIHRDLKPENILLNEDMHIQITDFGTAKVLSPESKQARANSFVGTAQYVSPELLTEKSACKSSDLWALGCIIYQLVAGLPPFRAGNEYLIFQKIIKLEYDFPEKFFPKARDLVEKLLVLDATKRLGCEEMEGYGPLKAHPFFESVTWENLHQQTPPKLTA

For the next assay, the target named is T2, PDK1 Tyr126 mutant (Homo sapiens, UniProt O15530, Y126A).
T2 sequence (O15530 1-556 Y126A): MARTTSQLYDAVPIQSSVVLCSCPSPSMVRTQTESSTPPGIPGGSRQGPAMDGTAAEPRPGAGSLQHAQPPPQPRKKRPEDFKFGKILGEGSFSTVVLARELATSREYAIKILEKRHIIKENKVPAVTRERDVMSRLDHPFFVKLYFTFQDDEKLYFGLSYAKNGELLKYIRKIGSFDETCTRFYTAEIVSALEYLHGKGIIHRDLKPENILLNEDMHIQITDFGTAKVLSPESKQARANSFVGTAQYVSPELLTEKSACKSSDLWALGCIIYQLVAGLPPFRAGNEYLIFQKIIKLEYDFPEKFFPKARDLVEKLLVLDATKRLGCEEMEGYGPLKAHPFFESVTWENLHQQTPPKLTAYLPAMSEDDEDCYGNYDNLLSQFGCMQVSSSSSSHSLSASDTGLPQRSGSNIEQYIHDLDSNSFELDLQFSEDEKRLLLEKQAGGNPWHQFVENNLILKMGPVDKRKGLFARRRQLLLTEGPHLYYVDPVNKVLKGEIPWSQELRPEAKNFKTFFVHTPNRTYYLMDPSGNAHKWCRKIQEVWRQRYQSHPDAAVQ
The assay can be described thus: Biacore binding of PIFtide (data of Komander et al. 2005). Conditions: applicant's estimate from the published biacore data.

A further assay has as its target T3, PDK1[Thr226Trp] (Homo sapiens, UniProt O15530, T226W).
T3 construct: The catalytic domain (CD) of PDK1 50-359 and its mutants Phe224Trp and Thr226Trp were expressed in insect cells and purified; made in house; host or cells: insect cells
T3 sequence (O15530 50-359 T226W): T1 sequence (O15530 50-359) with T177W
Briefly: PDK1 protein kinase activity test with T308tide substrate, Thr226Trp mutant. In kind it is biochemical. Conditions: PDK1 CD 50-359, T308tide as substrate. Here is the method:
Protein kinase activity tests: PDK1 activity tests were performed essentially as previously described (Biondi, R. M. et al., Embo. J. 20:4380-4390 (2001); Balendran, A. et al., J. Biol. Chem. 275:20806-20813 (2000); Biondi, R. M. et al., Embo. J. 19:979-988 (2000)) using T308tide as a substrate for PDK1. In brief, PDK1 activity assay was performed at room temperature (22° C.) in a 20 μl mix containing 50 mM Tris pH 7.5, 0.05 mg/ml BSA, 0.1% β-mercaptoethanol, 10 mM MgCl2, 100 μM [γ^32P]ATP (5-50 cpm/pmol), 0.003% Brij, 150 ng PDK1, and T308tide (from 0.1 to 1 mM). When appropriate, the PDK1 activity assay was performed in a 96 well format and 4 μl aliquots spotted with on p81 phosphocellulose papers (Whatmann) using ep motion 5070 (Eppendorf), washed in 0.01% phosphoric acid, dried, and then exposed and analysed using PhosphoImager technology (Typhoon, GE Healthcare). Activity measurements were performed in duplicates with less than 10% difference between pairs. Experiments were repeated at least twice. PDK1 specific activity at 22° C. was approximately 0.25 U/mg when the substrate concentration was 0.1 mM T308tide. […]

Substitutions are numbered along the chain they refer to.

With “REPRILSEEEQEMFRDFDYIADWC [PIFtide, polypeptide derived from the C-terminal 24 amino acids of the PDK1 substrate PRK2]”, the “effect on TNP-ATP fluorescence intensity in the presence of PDK1” value with PDK1 catalytic domain is given as “decreased”. Moreover, the “activation of PDK1” value in the assay on PDK1 is on record as “activated”. Also, in the assay with PDK1 Tyr126 mutant, the “decreased affinity for PIFtide of the Tyr126 mutant” value is “over 30 fold”. Also, the “activation of PDK1[Thr226Trp]” value in the assay with PDK1[Thr226Trp] is reported as “not activated”.
